# From the nanobody polyreactivity screen of Harvey et al. (2022)
# Assay: yeast display, Sf9 membrane polyspecificity reagent, FACS + sequencing; frameworks hold sequencing errors
# Method in brief: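 Synthetic nanobody libraries on Saccharomyces cerevisiae BJ5465 were galactose-induced for 36–48 hours, stained 1 hour at 4 °C with 10% biotinylated, detergent-solubilized Sf9 membrane reagent and enriched on streptavidin microbeads. FACS then separated cells into low and high (top ~1%) gates by anti-HA (expression) and streptavidin (reagent binding) fluorescence. Genes were colony-PCR amplified, MiSeq 2 × 250 sequenced and CDR-length filtered. A clone's polyreactivity label is that of its gate of origin.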
row,Sequence,polyreactivity (PSR sort gate)
1,QVQLVESGGGLVQAGGSLRLSCAASGRTFSVNAMGWYRQAPGKERELVAAIAWDGGSTYYADSVKGRFTISRDNAKNTVYLQMNSLKPEDTAVYYCNKDLYYAYDYWGQGTQVTVSS,low polyreactivity
2,QVQLVESGGGLVQAGGSLRLSCAASGRTFSVNAMGWYRQAPGKERELVAAISWDGGSTYYADSVKGRFTISRDNAKNTVYLQMNSLKPEDTAVYYCNQDLYYAYDYWGQGTQVTVSS,low polyreactivity
3,QVQLVESGGGLVQAGGSLRLSCAASGRTFSVNAMGWYRQAPGKERELVAAITSGGSTYYADSVKGRFTISRDNAKNTVYLQMNSLKPEDTAVYYCNADLEPYDYWGQGTQVTVSS,low polyreactivity
4,QVQLVESGGGLVQAGGSLRLSCAASGRTFSVNAMGWYRQAPGKERELVAAITSGGSTYYADSVKGRFTISRDNAKNTVYLQMNSLKPEDTAVYYCNAVGRLRRSRLRMDYWGQGTQVTVSS,high polyreactivity
5,QVQLVESGGGLVQAGGSLRLSCAASGRTFSWYAMGWYRQAPGKEREFVAAITSGGSTYYADSVKGRFTISRDNAMNTVYLQMNSLKPEDTAVYYCAAYGYWGQGTQVTVSS,high polyreactivity
6,QVQLVESGGGLVQAGGSLRLSCAASGRTFSYNAMGWYRQAPGKERELVAAITGRGGSTYYADSVKGRFTISRDNAKHTVYLQMNSLKPEDTAVYYCNAPPGTFQWQGHSDYWGQGTQVTVSS,low polyreactivity
7,QVQLVESGGGLVQAGGSLRLSCAASGRTFSYNAMGWYRQAPGKERELVAAITSSGGGTSYADSVKGRFTISRDNAKNTVYLQMNSLKPEDTAVYYCNRVLPHPDGYGVGARGYWGQGTQVSVSS,high polyreactivity
8,QVQLVESGGGLVQAGGSLRLSCAASGRTFSYNAMGWYRQAPGTERELVAAISGGGSTDYADSVKGRFTISRDNAKNTVYLQMNSLKPEDTAVYYCAAGWYVYTFFEFYVFDGDYWGQGTQVTVSS,low polyreactivity
9,QVQLVESGGGLVQAGGSLRLSCAASGRTFSYSAMGWYRQAPGKERELVAAISSGGSTNYADSVKGRFTISRDNAKNTVYLQMNSLKPEDTAVYYCATSSIWGSGRVRWVTYYYWGQGTQVTVSS,low polyreactivity
10,QVQLVESGGGLVQAGGSLRLSCAASGRTFSYSAMGWYRQAPGKERELVAAITGSGGRTYYADSVKGRFTISRDNAKNTVYLQMNSLKPEDTAVYYCAARYLYEGQLRPIRYYHYGYWGQGTQVTVSS,high polyreactivity
11,QVQLVESGGGLVQAGGSLRLSCAASGRTFSYYAMGCYRQAPGKERELVASISSGGSTKYADSVKGRFTISRDNAKNTVYLQMNSLKPEDTAVYYCAVTYWYGRVLYGYWGQGTQVTVSS,high polyreactivity
12,QVQLVESGGGLVQAGGSLRLSCAASGRTFSYYAMGWYRQAPGKERELVAAIDDNGGTTYADSVKGRFTISRDNATNTVYLQINSLKPEDTAVYYCAKRVSYFWALRRGYWGQGTKVTVSS,high polyreactivity
13,QVQLVESGGGLVQAGGSLRLSCAASGRTFSYYAMGWYRQAPGKERELVAAIRRSSGTTYYADSVKGRFTISSDNAKNTVYLQMNSLKPEDTAVYYCNARSRRASIKRDYWGQGTQVTLSS,high polyreactivity
14,QVQLVESGGGLVQAGGSLRLSCAASGRTFSYYAMGWYRQAPGKERELVAAISSGDSTYYADSVKGRFTFSRDNAMNTVYLQMNSLKPEDTAVYYCASYPSLYYTKYDYWGQGTQVTVSS,high polyreactivity
15,QVQLVESGGGLVQAGGSLRLSCAASGRTFSYYAMGWYRQAPGKERELVAAISSGGSTYYADSVKGRFTISRDNAKNTVYLQMNRLKPEDTAVYYCAKEYKQALGHVSFDYWGQGTQVTVSS,low polyreactivity
16,QVQLVESGGGLVQAGGSLRLSCAASGRTFSYYTMGRYRQAPGKERELVARISNRGTNTYYADSVKGRFTISRDHAKNSVNLQMNSLKTEDTAVFYCAKYYYTSIVGYDYWGQGTQVTVSS,low polyreactivity
17,QVQLVESGGGLVQAGGSLRLSCAASGRTFSYYTMGWSRQAPGKERQLVARISNRGTNTYYADSVKGRFTISRDNAKNTVYLQMNSLIPEDTGVYYCAKYYYTSIVGYDSWGQGTQVTVSS,low polyreactivity
18,QVQLVESGGGLVQAGGSLRLSCAASGRTFSYYTMGWYRQAPGKERDLVAGIRSAGSTYYADSVKGRFTISRDNAKNTVYLLMNSLKPEDTAVYYCAARPYGGGRRSIYYYWGQGTQVTVSS,high polyreactivity
19,QVQLVESGGGLVQAGGSLRLSCAASGRTFTAYAMGWYRQAPGKERELVAAITTSGGTTYYADSVKGRFTISRDNAKNTVYLQMNSLKPEDTAVYYCAADVVVSWWLIYDYWGQGTQVTVSS,low polyreactivity
20,QVQLVESGGGLVQAGGSLRLSCAASGRTFTAYAMGWYRQAPGKERELVAAITVSTSSTFYADSVKGRFTISRDNAKNTVYLQMNSLKPEDTAVYYCNKETLYPLDYWGEGTQVTVSS,low polyreactivity
21,QVQLVESGGGLVQAGGSLRLSCAASGRTFTEYAMGWYRQAPGKERELVARISIGDSTYYADSVKGRFTISRDNAKNTVYLQMNSLKPEDTAVYYCNAEYSRSYRYDECYWGQGTQVTVSS,low polyreactivity
22,QVQLVESGGGLVQAGGSLRLSCAASGRTFTEYAMGWYRQAPGKERELVARISIGDSTYYADSVKGRFTISRDNAKNTVYLQMNSLKPEDTAVYYCNAEYSRSYRYDEGYWGQGTQVTVSS,low polyreactivity

row,Sequence,polyreactivity (PSR sort gate)
1,QVQLVESGGGLVQAGGSLRLSCAASGRTFTFNAMGWYRQAPGKERELVAAITRSGGRTYYADSVKGRFTISRDNAKNTVYLQMNSLKPEDTAVYYCAAEWEYSWYDYDYWGQGTQVTVSS,high polyreactivity
2,QVQLVESGGGLVQAGGSLRLSCAASGRTFTFNSMGGYRQAPGKERELFSRIDWRGITYADSVKGRFTISRDNAKYTVYLQMNSLKPEVTAVYYCSATFIQVVVNVQLYDYDYWGQGTQVTVSS,low polyreactivity
3,QVQLVESGGGLVQAGGSLRLSCAASGRTFTFNTMGWYRQAPGKERELVAAITISDGRTYYADSVKGRFTISRDNAKNTVYLQMNSLKREVTAVYYCAAVQKYGYYWRHNDYWGQGTQVTVSS,low polyreactivity
4,QVQLVESGGGLVQAGGSLRLSCAASGRTFTFYAMGWYRQAPGKERELVAAISTRGGRTYYADSVKGRFTISRDNAKNTVYFQMNSLKPDDTAVYYCASRARRRYYYWGQGTQVTVSS,high polyreactivity
5,QVQLVESGGGLVQAGGSLRLSCAASGRTFTGNTMGWYRQAPGKERELVAAITKRGGSTYYADSVKGRFTISRDNAKNTVYLQMNSLKPEDTAVYYCAATSGVYRVGIIKYDYWGQGTQVTVSS,high polyreactivity
6,QVQLVESGGGLVQAGGSLRLSCAASGRTFTGYAMGWDRQAPGKERELVAGISYRGGSTYYADSVKGRFTISRDNAKNTVYLQMNSLKQEVTAVYYCARDYSRHKGDYWGQGTQVTVSS,low polyreactivity
7,QVQLVESGGGLVQAGGSLRLSCAASGRTFTGYAMGWYRQAPGKERELVAAISQGSGSTYYADSVKGRFTISRDNAKNTVYLQMNSLKPEDTAVYYCAAERAYYQTGHYYWGQGTQVTVSS,high polyreactivity
8,QVQLVESGGGLVQAGGSLRLSCAASGRTFTGYAMGWYRQAPGKERELVASISGSGGRTNYADSVKGRFTISRDNAKNTVYLQMNSLKPEDTAVYYCAARYRTWFGYWGQGTQVTVSS,high polyreactivity
9,QVQLVESGGGLVQAGGSLRLSCAASGRTFTHNVMGRYRQAPGKERELVAGISSTGGSTYYADSVKGRFTISRDNAKNTVYLQMNSLKPEDTAVYYCAVIGYHYSAISPPSQTRQGYDYWGQGTQVTVSS,low polyreactivity
10,QVQLVESGGGLVQAGGSLRLSCAASGRTFTHNVMGWYRQAPGKERELVAGISSTGGSTYYADSVKGRFTISRDNAKNTVYLQMNSLKPEDTAVYYCAVIGYHYSAISPPSQTRQGYDYWGQGTQVTVSS,low polyreactivity
11,QVQLVESGGGLVQAGGSLRLSCAASGRTFTHYAMGWYRQAPGKERELVAVITTGGSTYYADSVKGRFTISRDNAKNTVYLQMNSLKPEDTAVYYCAATALSGLGYWGQGTQVTVSS,low polyreactivity
12,QVQLVESGGGLVQAGGSLRLSCAASGRTFTIYAMGSYRQAPGKERELVAAITRSGGGTYYADSVKGRFTISRDNAKNTVYFQMKSLKPEDTAVYYCARDKHWFYGVIGPEDYWGQGTQVTVSS,low polyreactivity
13,QVQLVESGGGLVQAGGSLRLSCAASGRTFTIYAMGWYRQAPGKEREFVAGITTGGSSTYYADSVKGRFTISRDNAKNTVYLQMNILKPEDTAVYYCAAVSYAWYDYWGQGTHVTVSS,low polyreactivity
14,QVQLVESGGGLVQAGGSLRLSCAASGRTFTKYAMGWYIQAPGKERELVASISTRGGSTYYADSVKGRFTISRDNAKNTVYLQMNSLKPEDTAVYYCNKGFRHRAPSSTPYDYWGQGTQVTVSS,high polyreactivity
15,QVQLVESGGGLVQAGGSLRLSCAASGRTFTKYAMGWYRQAPGKERELVATIRGRGGSTYYADSVKGRFTISRDNAKYTVYLQMNSLKPEDTAVYYCAADYWFSSRKYDYWGQGTQVTVSS,high polyreactivity
16,QVQLVESGGGLVQAGGSLRLSCAASGRTFTLNAMGWYRQAPGKERELVAAISGDTGSTYYADSVKGRFTISRDNAKNTVFLQMNSLKPEDTAVYYCATRHAGTWYYWFERYYWGQGTQVTVSS,high polyreactivity
17,QVQLVESGGGLVQAGGSLRLSCAASGRTFTPNAMGWYRQAPGKERELVAAITSTGGRTYYADSVKGRFTISRDNAKNTVYLQMNSLKPEDTAVYYCAVSYRYLRKYGYWGQGTQVTVSS,high polyreactivity
18,QVQLVESGGGLVQAGGSLRLSCAASGRTFTPNAMGWYRQAPGKERELVASIRRGTSTYYADSVKGRFTISRDNAKNTVYLQMNSLKPEDTAVYYCAARPFVPRVGTYSYYWGQGTQVTVSS,high polyreactivity
19,QVQLVESGGGLVQAGGSLRLSCAASGRTFTPYDMGWYRPAPGKERELVAAITWRGGSTYYADSVKGRFTISRDNAKNTVYLQMNSLKPEDTAVYYCAKDRWTYAFRVGYGYWGQGTQVTVSS,high polyreactivity
20,QVQLVESGGGLVQAGGSLRLSCAASGRTFTRNAMGWYRQAPGKERELVAAITGRGGSTYYADSVKGRFTISRDNAKNTVYLQMNSLKPEDTAVYYCARFYRYSRDYWGQGTQVTVSS,high polyreactivity
21,QVQLVESGGGLVQAGGSLRLSCAASGRTFTRNAMGWYRQAPGKERELVAAITRGASTYYADSVKGRFTISRDNAKNTVYLQMNSLKPEDTAVYYCAVSQYRGIYRKYDYWGQGTQVTVSS,high polyreactivity
